Data published in the supplement of paper PMC10724198.
± gives the standard deviation of the averaged measurements.

system: Saccharomyces cerevisiae; test: protein stability index of tFT-peptide fusion (C-terminal peptide) (PSI (0-1 scale)); higher = more stable (slower turnover); conditions: genetic background: wild type; temperature: 30 C
Method: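 Multiplexed protein stability (MPS) profiling in S. cerevisiae. Random 12-aa peptides (tFT-X12 library) are fused to the C-terminus of a sfGFP-mCherry tandem fluorescent timer, after mCherry and a GGGS linker. Cells are FACS-sorted into 8 mCherry/sfGFP bins and deep-sequenced. The protein stability index (PSI) is the read-weighted bin average, scaled from 0 (unstable) to 1 (stable). Only peptides with >10 reads are reported; cells were grown at 30 °C in SC-His with glucose.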
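Note: PSI is a weighted mean of sequencing reads over stability bins, variants kept only with over 10 reads, mCherry proximal and sfGFP distal, peptide attached via GGGS linker.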

Row | Sequence | protein stability index
1 | EVYPAEADVFGG | 0.69 ± 0.052
2 | EWEKPEDLHKPA | 0.659 ± 0.058
3 | EWGGGGGGGKCV | 0.733 ± 0.054
4 | EWQWGWGGVRRD | 0.765 ± 0.032
5 | EWTTTVLGGQLR | 0.696 ± 0.027
6 | EWVPDIANLRRR | 0.752 ± 0.16
7 | EYFKTKQKKKKE | 0.753 ± 0.12
8 | EYGECWCWSSWR | 0.732 ± 0.059
9 | FACAGPAAFHSL | 0.597 ± 0.014
10 | FADTALLCELLR | 0.687 ± 0.033
11 | FAKELSLRSFSA | 0.814 ± 0.04
12 | FALCLPPPSPPA | 0.761 ± 0.026
13 | FALFQSFCFFCF | 0.564 ± 0.061
14 | FALTHSRSPSTS | 0.799 ± 0.1
15 | FASSSDSLWRGI | 0.679 ± 0.014
16 | FATPDGFVSLWF | 0.774 ± 0.14
17 | FAVLSFRFPGGL | 0.693 ± 0.099
18 | FAVSTVCWCCGL | 0.647 ± 0.041
19 | FCGGYHATVKMR | 0.68 ± 0.015
20 | FCNAVLSCFSIF | 0.597 ± 0.0068
21 | FCVVVAIVPLWG | 0.512 ± 0.013
22 | FCWVVFHSGISS | 0.713 ± 0.085
23 | FCYWCLGWGVGL | 0.692 ± 0.059
24 | FELYGVGLGTCA | 0.633 ± 0.17
25 | FEVAPAPLDQVV | 0.653 ± 0.028

Row | Sequence | protein stability index
26 | FFCTHFQLLFSP | 0.641 ± 0.019
27 | FFDKLEIRALVV | 0.6302 ± 0.00098
28 | FFERRLGYYSRM | 0.85 ± 0.09
29 | FFFLCLPSSFAF | 0.614 ± 0.0098
30 | FFGFLLFCSRFS | 0.516 ± 0.016
31 | FFMEKPSSGCTS | 0.685 ± 0.017
32 | FFPLSSLIAFLP | 0.6815 ± 0.0025
33 | FFPPLPATSVPA | 0.561 ± 0.1
34 | FFSFILGGFLLG | 0.6682 ± 0.00082
35 | FFSSHPCYFSTF | 0.69 ± 0.072
36 | FFSVLSAISFFF | 0.628 ± 0.06
37 | FFVGGVTDLFVS | 0.724 ± 0.0092
38 | FFWTTPRFPFPS | 0.725 ± 0.021
39 | FFYFSLSLSHFC | 0.496 ± 0.025
40 | FGAATLFLLAPC | 0.55 ± 0.02
41 | FGASYLGSLLDV | 0.699 ± 0.057
42 | FGCGLYPLRVLH | 0.604 ± 0.034
43 | FGCISAGLGWMY | 0.721 ± 0.048
44 | FGCLGVLGAGRC | 0.713 ± 0.034
45 | FGGGGGGVGLAV | 0.65 ± 0.033
46 | FGGGSHRRGRCR | 0.68 ± 0.018
47 | FGGSTPVLKPTQ | 0.719 ± 0.019
48 | FGLWGFGRPRGW | 0.721 ± 0.031
49 | FGQERLHMSILF | 0.692 ± 0.029
50 | FGSLRLQITVNP | 0.557 ± 0.098

Row | Sequence | protein stability index
51 | FGTSLLPLPPPD | 0.601 ± 0.025
52 | FGVQTFIGPTIV | 0.677 ± 0.012
53 | FGVSIGELAGRH | 0.686 ± 0.035
54 | FGVTGLGVGLVW | 0.639 ± 0.0066
55 | FHFLCLVGSFRG | 0.528 ± 0.037
56 | FIGFGCGLVWSV | 0.613 ± 0.019
57 | FILERSLLSLQG | 0.678 ± 0.18
58 | FILLFGCFGFFC | 0.557 ± 0.051
59 | FIRDKQTSFDIR | 0.68036 ± 0.00024
60 | FKLVGRHLHSFD | 0.652 ± 0.06
61 | FKRLSTDCSVNS | 0.687 ± 0.061
62 | FKSVPTLPHPSP | 0.6701 ± 0.0045
63 | FLASFSSFMFYL | 0.591 ± 0.016
64 | FLDPFLTRRCVF | 0.694 ± 0.055
65 | FLFADVSSPSSI | 0.725 ± 0.038
66 | FLGGWVCGWPQF | 0.772 ± 0.15
67 | FLISSGPSVSVL | 0.623 ± 0.026
68 | FLLLSPARLVLL | 0.5529 ± 0.0021
69 | FLLYSSSAIPEH | 0.759 ± 0.065
70 | FLRISPPPPSPP | 0.676 ± 0.077
71 | FLRLFLQQVEFL | 0.7157 ± 0.0026
72 | FLSFIADVTGKR | 0.707 ± 0.019
73 | FLSFLFTGFIQL | 0.595 ± 0.017
74 | FLSGPCLLSFAS | 0.679 ± 0.12
75 | FLVFRFPFGFSC | 0.566 ± 0.025

Row | Sequence | protein stability index
76 | FLVNVIRSCKGE | 0.685 ± 0.059
77 | FLWSSLYYARLD | 0.75 ± 0.032
78 | FLYDPVMLGLAC | 0.469 ± 0.053
79 | FMLGYIRPKWGG | 0.714 ± 0.12
80 | FMRASPSACTCL | 0.668 ± 0.094
81 | FMSMSYDEWAYL | 0.721 ± 0.064
82 | FMYRDVPFLRAP | 0.697 ± 0.03
83 | FNHYPSPPQRFY | 0.685 ± 0.072
84 | FNIIHKKNTKEI | 0.778 ± 0.03
85 | FNPRIGGDCRSA | 0.678 ± 0.031
86 | FNRTRRLPLDSL | 0.7018 ± 0.0053
87 | FPAYPLPPPAPN | 0.697 ± 0.067
88 | FPFDMTSTEMSL | 0.639 ± 0.096
89 | FPFGICMISCDG | 0.628 ± 0.02
90 | FPGSLVPVASVP | 0.71 ± 0.089
91 | FPHPSPPPFPPP | 0.698 ± 0.026
92 | FPLPPPPPAVFL | 0.673 ± 0.086
93 | FPLPPPPSLSTP | 0.656 ± 0.036
94 | FPLPSPPRPFSF | 0.761 ± 0.041
95 | FPPCSPPPPAPL | 0.625 ± 0.05
96 | FPPLLFPPTPTR | 0.842 ± 0.027
97 | FPPLTRPSPIYP | 0.726 ± 0.03
98 | FPPPCVLPLPRT | 0.723 ± 0.02
